According to PMC4813732:

Legend:
Human thrombin (human) [1] = biological target: Human thrombin (human)
Human thrombin (human) [2] = biological target: Human thrombin (human); remark: listed apart in the source

second-order rate constant of thrombin inhibition, with heparin (residual thrombin activity on S-2238, 25°C, pH 7.4) (Human thrombin (human) [1])	heparin cofactor activity (residual thrombin activity at the end of thrombin inactivation in the presence of heparin; phAT as standard) (Human thrombin (human) [2]) [IU/mg]	second-order rate constant of thrombin inhibition, without heparin (residual thrombin activity on S-2238, 25°C, pH 7.4) (Human thrombin (human) [1])	Substance
1.9e+07 /M/s	5.49	–	α-form of recombinant human antithrombin bearing sialylated biantennary complex-type N-linked oligosaccharides lacking a core fucose (from UniProt P01008 33-464) (natural protein)
2e+07 /M/s	5.66	7300 /M/s	β-form of recombinant human antithrombin bearing sialylated biantennary complex-type N-linked oligosaccharides lacking a core fucose (from UniProt P01008 33-464) (natural protein)
1.9e+07 /M/s	5.8	6100 /M/s	β-form of recombinant human antithrombin bearing high-mannose-type N-linked oligosaccharides (from UniProt P01008 33-464) (natural protein)
1.9e+07 /M/s	5.83	6600 /M/s	α-form of recombinant human antithrombin bearing high-mannose-type N-linked oligosaccharides (from UniProt P01008 33-464) (natural protein)
–	0.35	–	latent form of recombinant human antithrombin (from UniProt P01008 33-464) (natural protein)
